Measurements from the DeepSol protein solubility set.

Experiment: soluble on expression in E. coli; label from the status in PepcDB or PDB records

| Sequence | soluble on expression in E. coli |
| --- | --- |
| MSKKQSSTPHDALFKLFLRQPETARDFLAFHLPAPIHALCDMKTLKLESRSFIDDDLRESYSDVLWSVKTEQGPGYIYCLIEHQSTSNKLIAFRMMRYAIAAMQNHLDAGYKTLPMVVPLLFYHGIESPYPYSLCWLDCFADPKLARQLYASAFPLIDVTVMPDDEIMQHRRMALLELIQKHIRQRDLMGLVEQMACLLSSGYANDRQIKGLFNYILQTGDAVRFNDFIDGVAERSPKHKESLMTIAERLRQEGEQSKALHIAKIMLESGVPLADIMRFTGLSEEELAAASRLAP | not soluble |
| MSKLMQNPVLHELKKQASFFIKEKIKTARLAVTDVTAEELLTEEVTGSDHSSIDSRSMAAITRVSFEVDQFQRIVKILRQRMVVFDRKEWRGMCNTLSMLNHLLLNGPLSVFSEFQHERAIIEDAIKMEWIDERGFDCGLKVRNIAEKVLRLLEDDMFLKDERERNRKQSIGRITGFGNSSFVIHSETNNGRDGSLMLSNHQTCENDCIADDHPFVENEHKTAQLLLSSST | soluble |
| MSKLSFRARALDASKPLPVFRCEDLPDLHEYASINRAVPQMPTGMEKEEESVMLRFFSLYFYRLYPPSTRSLLCASLHKMAAMFLPDGNGDGAHTSPLVIPHSGWLVGLIRISL | not soluble |
| MSKNIVVAPSILSADFSRLGEEIKAVDEAGADWIHVDVMDGRFVPNITIGPLIVDAIRPLTKKTLDVHLMIVEPEKYVEDFAKAGADIISVHVEHNASPHLHRTLCQIRELGKKAGAVLNPSTPLDFLEYVLPVCDLILIMSVNPGFGGQSFIPEVLPKIRALRQMCDERGLDPWIEVDGGLKPNNTWQVLEAGANAIVAGSAVFNAPNYAEAIAGVRNSKRPEPQLATV | soluble |
| MSKSICKSSMRAAVVRRFGAPDVIEAVESDMPRLEKNQVLVRNYAAGVNPVDTYIRAGQYGKLPNLPYVPGKDGAGFVELVGESVKNVKVGDRVWYGSEADSTAEYVAVNRPFELPEGVSFEEGASLGVPYLTAYRALFHLAGAKTGDVILVHGASGGVGSALMQLAAWRNIEAVGTAGSADGIRFVKSLGARNVYNHSDKQYVSKMKNDYPGGFNHIFEMAAHTNLNTDLGLLAPRGRVAVIGNRAETTINARQLMVTEGAVYGVALGMSSEAELLDFGINIVSFLKETEFRPLINKLYRLEQLGLAHEEIMNNKGAKGNLVVQIEH | not soluble |
| MSKSQYKMSKITYASGKMRPPSLIQKLNVYKPFLLIVDINSTNFALVGNGEILGHLFYRQNSPSYTQIKSRLVIYPKCCKLYSEDIAIPLHDWKIENLGAIKLLTKHNSLKTGTLHQIDKTMMLVYMAAFGEDSGVRSKISKPHGKTATWRNQHDLFMQ | not soluble |
| MSLAASRRRNTYSQKVNMSNNVRADSLSLLLFTLRSGKLMAINLLKVSEIIPCPALTHLPESHPHVKGIATLRGSSLAVIDLSRAIGERPLADPDGGCLIVTDVSRSKQGLHVQAVSKIVHCLTTDIRPPPYGSSSKSFITGVTQVDGVLVQVLDIEKVIHGIAPAQIVVQSTELAKEDAEVLSKARILVVDDSQVALQQSIITLRNLGIECHTARSAREAIDVLLDLQGTARQINVVVSDIEMSEMDGYALTRTLRDTPDFSDLYILLHTSLDSAMNSEKSQIAGANAVLTKFSSPELTKCLIEAARTVVAQGEGHHHHHH | soluble |
| MSLAATGNASKPSLNSFYADGLGQLRNGLFSCFQPVFGYFGTKTTVEIEKSEDELWEIPFDAISELEWLGSGSQGAVFRGQLENRTVAVKKVNQLKETEIKHLRHLRHQNIIEFLGVCSKSPCYCIVMEYCSKGQLCTVLKSRNTITRELFAQWVKEIADGMHYLHQNKVIHRDLKSPNILISAEDSIKICDFGTSHMQKKMDSTMMSFCGTVSWMAPEMIKKQPCNEKVDVYSFGVVLWEMLTRETPYANIAQMAIIFGVGTNILSLPMPEEAPKGLVLLIKQCLSQKGRNRPSFSHIRQHWEIFKPELFEMTEEEWQLAWDSYREFAKCIQYPSTVTRDHGGPKSAFAMEEEIQRKRHEQLNHIKDIRNMYEMKLKRTNKMYDKLQGCFTELKLKESELAEWEKDLTEREGHHHHHH | not soluble |
| MSLADLEEALLIIDSDEDVSRHMKEHLTSRGFHVVHCASVKCFTDLKAQVTPDIIIGDLTSDDIKSLYSLLKDVHPRPPIVIHSKRADAENILGALRSGASDYIVKPVADVAVLDEAIQRQIDQVRVYRENQQYRYDLELANKELRAGLEELQADQRAGRHVQMKMLPEREVEYGGIQFDHCIKPSLYLSGDFFDYFRLSSDKIAFYFADVSGHGASSAFVTVLLKNLSNRLQRNLRRQSSDDILYPDRFLKRVNAELLDTDLGKHLTMFAGVIDLQTRVLSYSMGAHFPMPVMSVNGVSRYLDGKGPPVGLFDDPVYPLYEEPLAPGFSLVICSDGLLEVINAKSLAEKEQALLETVQEARHTIPELEKAFGLRWITELPDDIAIVSIMETTEGHHHHHH | soluble |
| MSLADTIIKNAKIVDVYNARIIEGTLAIADSRFLGIDAAYTADNVINAHGQYVVPGLIDPHIHIESANVSPAVFGSLVTPHGTTTILADPHEIVNVAGMRGLEYMVASAKNTALDIKYTMPSCVPAANPTLETSGAVITADEIKQSYDQGLTYGLAEFMNYPGVVNADDGVLDELLVSLNARKMIDGHSPALHGQGLNAYAAAGVHNDHECTQVDEMLDRISRGMYVYLRYGTVSKNMPTLLKGVTPQNARFCCLCGDDLQSVTLRETGHLDESIRVAIQNGIDPLTAIQMATINTAQCTGLSDRGGIAPGLKADFLLVDDLEHFNVNQTFIDGQKIAANGAYLLPTDDSVAGFDDLLETVHLDNFSADQLKLNLTSDKAHVIGLQSISRTQNLVLPVAHDAEGDFHYKPSEDIVKVAVVERHHLTGNVGVGLLSGFGLQNGAIATSIGHDSHNLVVVGTNDADMVVAIDALKACQGGGVAVQNGQVIATLPFVIGGLMSTEPIDSLIAHQKAFNTICHEQLNVTAQFDPIMKLGAMPLDVIPNLRITDKGLVDVTKFEIIDINAEGHHHHHH | soluble |
| MSLADTLMSDTPFWQRKTLDEMTDAEWESLCDGCGQCCLHKLMDEDTDEIYFTNVACRQLNIKTCQCRHYERRFEFEPDCIKLTRENLPDFEWLPMTCAYRLLAEGKPLPTWHPLLTGSKAAMHGERISVRHIAVKESEVRDWQDHILNKPSWAEEGHHHHHH | not soluble |
| MSLAEFIYTMRKVRKAHGDKVILDDVNLNFLPGAKIGVVGPNGAGKSSVLRIMAGLDTPNNGDAYLAPGASVGILQQEPHLDETKTVRENVEEGVPIKGKLNRYNEVAELMATDYSDELMEEMGRLQEELDAADAWDIDSQLEQAMDALRCPPPDEPVTHLSGGERRRVALCKLLLSKPDLLLLDEPTNHLDAESVLWLEQHLASYKGAILAVTHDRYFLDNVAEWILELDRGRAYPYEGNYSTYLEKKAERLEVQGKKDQKLQKRLKEELAWVRSGAKARQAKNKARLGRYEEMAAEAEKSRKLDFEEIQIPTPPRLGNVVVEVEHLDKGFEGRTLIKDLSFTLPRNGIVGVIGPNGVGKTTLFKTIVGLEQPDSGVVRVGDTVKLSYVDQNRAGIDPKKNVWEVVSDGLDYIEVGQNEIPSRAYVSAFGFKGPDQQKPAGVLSGGERNRLNLALTLKEGGNLILLDEPTNDLDVETLSSLEHALEQFPGCAVVISHDRWFLDRTCTHILAWEGDDDNEAKWFWFEGEGHHHHHH | soluble |
| MSLAEKPIKLGVLEDQSGDFAVATIGKVHAIQLAADEINKAGGIMGRPLELVVYDTQSDNTRYQEFMRRVLQRDKADAVFAGFSSASREAYRPIVDQLNGLAFYNNQYEGGVCDGHMIVTGAVPEQQFSTLIPWMMEKYGKKVYTLAADYNFGQISAEWVRNIVKQHGGEMAGVEFIPLGVSQFSQSIQNIQKAKPDFVVTLLVGTAQASYYEQAASANVNLPMASSVNVGQGYEHKRFKPPSLKDMYVTTNYIEEIDSPQSKAFLAKFKAKFPNEPYVNQEAENSYLAVYLYKQMVERAKSTNRDEIRKVIAQGDVCMDAPEGKVCIDPKSQHMSHTIYLAHVNADHSIDFPKVWPDIKPYWLGEAGCDLTKKDPMAQYTPSNEGHHHHHH | soluble |
| MSLAELTALYTLTAQMKREGICRLLVLSGEEGWCFDHALKLRDALPGDWLWISPQLDAENHCSPSALQTLLGREFRHAVFDARHGFDAAAFAALSGTLKAGSWLVLLLPVWEEWENQPDADSLRWSDCPDPIATPHFVQHLKRVLTADNDAILWRQNQPFSLAHFTPRTDWHPATGAPQPEQQQLLQQLLTMPPGVAAVTAARGRGKSALAGQLISRIAGSAIVTAPAKAATDVLAQFAGEKFRFIAPDALLASDEQADWLVVDEAAAIPAPLLHQLVSRFPRTLLTTTVQGYEGTGRGFLLKFCARFPHLHRFELQQPIRWAQGCPLEKMVSEALVFNDENFTHTPQGNIVISAFEQTLWRSEPETPLKVYQLLSGAHYRTSPLDLRRMMDAPGQHFLQAAGENEIAGALWLVDEGGLSQELSQAVWAGFRRPRGNLVAQSLAAHGSNPLAATLRGRRVSRIAVHPARQREGTGRQLIAGALQYTHDLDYLSVSFGYTGELWRFWQRCGFVLVRMGNHREASSGCYTAMALLPMSDAGKQLAEREHYRLRRDAQALAQWNGEMLPVDPLNDAILSDDDWLELAGFAFAHRPLLTSLGCLLRLLQTSELALPALRGRLQKNASDAQLCTTLKLSGRKMLLVRQREEAAQALFALNEVRTERLRDRITQWQFFHEGHHHHHH | soluble |
| MSLAERLEIMVPSGSYVSFMRNTVTPEFNKLYPEVNLVVSNDEQLDTRMAAGDNPNVYIGVFGYQPAKLAKLGKLAYLDKFPGFAELNERIDPHFLRENFGRTYYIPWNATTQMMIYNKELFAEAGLDPERPPATWDEFLLAAEKISALPPRSDGSKVYGTVFWNDVLSFGSWYWNLLTPMYYNVNQGQYQLLNRYGTDIVFDRPDANMAQFMRTMQQAQRFAPLTMEKSFFSRNIGMWLQFGFGWKATLSSAAERPMVVGQDVAIAPIPVQTKGDIHYSVLDGRAIMIFKDEARKEQLSWALLNLLMRDDINLQANIALGQLPTLKALQDAPYFQSAEAQPFVQQLQHAILSEPFANAMEVANIILANYSKVVLKGEISPEQAVATSAQAARQLLNEHEGHHHHHH | soluble |
| MSLAGCTSPANNGAGGDENGETVYRVAYVARTQSDSFAAWLANAISEEADKYDNIIIDVFDGQASDSTQNSLIENAITSNYDAIIIQPNNGEAQKSYAEQAVAAGIITITTNARIEGVQGASSVDADPYEQAKVNADVALEQIPQNANVVVLKGPPGNFHADARRDSWQKEFFDKRPDVTIVGEEIANWNKDEAMTYMETWVQANSKIDAIIAMNDNMAAGALEVVRDDSNFAGMLSYGVDGTAEAVLLIQEGVMTQTSLQSAYDLATALLDTSNKLLTGAETQIDIDIDAPVINSDNVEEYVEMHKRAGAIREGHHHHHH | soluble |
| MSLAHEMRDGSSRGLRIDFHVHLGVYADHKPWVTEWIKQSQPDPGEYDAYIERYSDPGAFEELLAAEGVDYACVLAELCPITTGICSNEQVEAFCKGRKRLIPFCSINPHLTTDLGGELRRLVETEGFRGLKLYPSYQHYYLNDPRVYPLYQAAQELGIPVLIHTGSSVFKGTRIKYCDPIHLDDVANDFPSLNLVMAHSGRGFWYDRAFFLSKLHSNLYMEVSGLPPSKLMTYFPELARNTDKVIFGSDWPGASQIKRNMDAIGALPLPAEGVEKILGGNAARLLNFEGHHHHHH | soluble |
| MSLAKLDETLTMLKDLTDAKGIPGNEREVRQVMKSYIEPFADEVTTDRLGSLIAKKTGAENGPKIMIAGHLDEVGFMVTQITDKGFIRFQTVGGWWAQVMLAQRVTIVTKKGEITGVIGSKPPHILSPEARKKSVEIKDMFIDIGASSREEALEWGVLPGDMIVPHFEFTVMNNEKFLLAKAWDNRIGCAIAIDVLRNLQNTDHPNIVYGVGTVQEEVGLRGAKTAAHTIQPDIAFGVDVGIAGDTPGISEKEAQSKMGKGPQIIVYDASMVSHKGLRDAVVATAEEAGIPYQFDAIAGGGTDSGAIHLTANGVPALSITIATRYIHTHAAMLHRDDYENAVKLITEVIKKLDRKTVDEITYQEGGSHHHHHH | soluble |
